# ± gives the standard deviation of the averaged measurements.
# Assays:
# Saccharomyces cerevisiae [1] = test: protein stability index of tFT-peptide fusion (C-terminal peptide) (PSI (0-1 scale)); higher = more stable (slower turnover)
# Method: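 MPS profiling in S. cerevisiae of the tFT-X12 degron library: putative degron peptides plus stable controls, 12 aa, fused to the C-terminus of a sfGFP-mCherry timer. Cells are FACS-sorted into 8 mCherry/sfGFP bins and deep-sequenced. PSI runs from 0 (unstable) to 1 (stable). Backgrounds are wild type, das1Δ and doa10Δ at 30 °C, and wild type, das1Δ, cdc34-1 and cdc53-1 at 37 °C; 2-3 technical replicates each.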
# Saccharomyces cerevisiae [2] = test: as above; details: genetic background: wild type; temperature: 30 C
# [3] = genetic background: cdc34-1, temperature: 37 C
# [4] = genetic background: cdc53-1, temperature: 37 C
# [5] = genetic background: das1 deletion, temperature: 30 C
# [6] = genetic background: das1 deletion, temperature: 37 C
# [7] = genetic background: doa10 deletion, temperature: 30 C
# [8] = genetic background: wild type, temperature: 30 C
# [9] = genetic background: wild type, temperature: 37 C
# 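Further: PSI is a weighted mean of sequencing reads over stability bins, variants kept only with over 10 reads, mCherry proximal and sfGFP distal, peptide attached via GGGS linker.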
Sequence,protein stability index (Saccharomyces cerevisiae [1]; [3]),protein stability index (Saccharomyces cerevisiae [1]; [4]),protein stability index (Saccharomyces cerevisiae [1]; [5]),protein stability index (Saccharomyces cerevisiae [1]; [6]),protein stability index (Saccharomyces cerevisiae [1]; [7]),protein stability index (Saccharomyces cerevisiae [1]; [8]),protein stability index (Saccharomyces cerevisiae [1]; [9]),protein stability index (Saccharomyces cerevisiae [2])
CVFVRCVDCMSG,0.553 ± 0.013,0.544 ± 0.041,0.384 ± 0.031,0.594 ± 0.0081,0.354 ± 0.034,0.387 ± 0.015,0.579 ± 0.0085,0.465 ± 0.024
CVLGWCSLIAWC,0.201 ± 0.044,0.238 ± 0.032,0.234 ± 0.015,0.231 ± 0.011,0.245 ± 0.025,0.242 ± 0.0093,0.1967 ± 0.0017,0.284 ± 0.018
CWLFVWVRVISL,0.0995 ± 0.049,0.118 ± 0.01,0.155 ± 0.038,0.23174 ± 3.6e-05,0.103 ± 0.024,0.12 ± 0.033,0.158 ± 0.018,0.186 ± 0.033
DCLSFVLFLFLC,0.203 ± 0.038,0.259 ± 0.015,0.239 ± 0.025,0.39151 ± 0.00036,0.149 ± 0.007,0.134 ± 0.022,0.149 ± 0.0066,0.183 ± 0.017
DFCCGVILTCVC,0.0751 ± 0.0081,0.106 ± 0.011,0.191 ± 0.025,0.233 ± 0.0083,0.156 ± 0.012,0.184 ± 0.019,0.193 ± 0.023,0.279 ± 0.01
DGGHLVGHDLFY,0.716 ± 0.023,0.747 ± 0.023,0.656 ± 0.023,0.758 ± 0.032,0.657 ± 0.016,0.664 ± 0.053,0.78 ± 0.0091,0.727 ± 0.024
DIGCLWSKTRLC,0.669 ± 0.019,0.7585 ± 0.0073,0.652 ± 0.0094,0.763 ± 0.015,0.324 ± 0.022,0.359 ± 0.017,0.6042 ± 0.0039,0.431 ± 0.12
DILQITNIKQKR,0.71 ± 0.041,0.741 ± 0.015,0.676 ± 0.038,0.731 ± 0.021,0.654 ± 0.014,0.654 ± 0.014,0.722 ± 0.039,0.572 ± 0.16
DVHPLFYCIPVY,0.0345 ± 0.018,0.0286 ± 0.016,0.101 ± 0.037,0.0568 ± 0.014,0.0881 ± 0.0095,0.101 ± 0.02,0.0474 ± 0.03,0.13922 ± 3.4e-05
FAIPFVLFFRVT,0.161 ± 0.02,0.134 ± 0.0062,0.257 ± 0.03,0.333 ± 0.017,0.2593 ± 0.0021,0.173 ± 0.024,0.231 ± 0.013,0.224 ± 0.07
FASALAPLSAVA,0.48 ± 0.014,0.494 ± 0.022,0.366 ± 0.044,0.529 ± 0.001,0.307 ± 0.0091,0.358 ± 0.036,0.509 ± 0.0079,0.4002 ± 0.0029
FCASCLVCFIYL,0.492 ± 0.0074,0.501 ± 0.0053,0.426 ± 0.024,0.5207 ± 0.0051,0.444 ± 0.026,0.421 ± 0.031,0.517 ± 0.019,0.462 ± 0.023
FCCWCVCFGYSG,0.575 ± 0.093,0.604 ± 0.013,0.395 ± 0.019,0.582 ± 0.0089,0.372 ± 0.02,0.394 ± 0.025,0.549 ± 0.007,0.443 ± 0.0049
FCFCLVLRVFLG,0.118 ± 0.0026,0.171 ± 0.011,0.154 ± 0.03,0.272 ± 0.0093,0.172 ± 0.011,0.162 ± 0.024,0.222 ± 0.014,0.253 ± 0.034
FCFFSMGFVLAL,0.3489 ± 0.00089,0.365 ± 0.0065,0.334 ± 0.0061,0.45 ± 0.017,0.289 ± 0.0053,0.314 ± 0.017,0.422 ± 0.026,0.453 ± 0.072
FCIIVFYIFVGI,0.451 ± 0.061,0.506 ± 0.078,0.342 ± 0.027,0.48 ± 0.077,0.323 ± 0.024,0.333 ± 0.022,0.486 ± 0.042,0.382 ± 0.041
FCLMLWGAVLFL,0.216 ± 0.014,0.29 ± 0.0077,0.235 ± 0.019,0.364 ± 0.047,0.226 ± 0.015,0.223 ± 0.03,0.33 ± 0.0042,0.314 ± 0.025
FCVLLFFFPLII,0.272 ± 0.012,0.293 ± 0.04,0.271 ± 0.029,0.402 ± 0.0046,0.376 ± 0.037,0.261 ± 0.015,0.374 ± 0.012,0.363 ± 0.024
FEVLINIWFLSA,0.272 ± 0.028,0.388 ± 0.026,0.3 ± 0.042,0.422 ± 0.0066,0.185 ± 0.011,0.19 ± 0.018,0.324 ± 0.013,0.262 ± 0.019
FFACSLLFVLVF,0.0985 ± 0.0033,0.175 ± 0.022,0.177 ± 0.022,0.27 ± 0.0076,0.1392 ± 0.0012,0.17 ± 0.027,0.226 ± 0.014,0.228 ± 0.0075

Sequence,protein stability index (Saccharomyces cerevisiae [1]; [3]),protein stability index (Saccharomyces cerevisiae [1]; [4]),protein stability index (Saccharomyces cerevisiae [1]; [5]),protein stability index (Saccharomyces cerevisiae [1]; [6]),protein stability index (Saccharomyces cerevisiae [1]; [7]),protein stability index (Saccharomyces cerevisiae [1]; [8]),protein stability index (Saccharomyces cerevisiae [1]; [9]),protein stability index (Saccharomyces cerevisiae [2])
FFAIFSLLLSFT,0.449 ± 0.015,0.482 ± 0.0083,0.401 ± 0.028,0.532 ± 0.012,0.399 ± 0.007,0.4 ± 0.014,0.527 ± 0.0072,0.459 ± 0.026
FFALYGHILGLF,0.702 ± 0.02,0.7821 ± 0.0041,0.611 ± 0.023,0.7525 ± 0.0025,0.472 ± 0.028,0.491 ± 0.016,0.685 ± 0.052,0.4957 ± 0.0022
FFFPFLCIAVSL,0.464 ± 0.036,0.474 ± 0.016,0.418 ± 0.034,0.472 ± 0.0053,0.4007 ± 0.0018,0.413 ± 0.018,0.436 ± 0.011,0.458 ± 0.022
FFICCPLLVVCS,0.0277 ± 0.012,0.0453 ± 0.027,0.091 ± 0.022,0.0716 ± 0.018,0.064 ± 0.016,0.0665 ± 0.035,0.0677 ± 0.021,0.109 ± 0.041
FFILVFFSLLST,0.2927 ± 0.0014,0.445 ± 0.018,0.283 ± 0.049,0.441 ± 0.032,0.244 ± 0.041,0.274 ± 0.033,0.4056 ± 0.0022,0.404 ± 0.032
FFLFILYFGSCF,0.358 ± 0.025,0.422 ± 0.0051,0.349 ± 0.034,0.481 ± 0.0073,0.362 ± 0.017,0.329 ± 0.012,0.448 ± 0.017,0.399 ± 0.029
FFLFLVCLFFFS,0.405 ± 0.016,0.36 ± 0.1,0.358 ± 0.032,0.487 ± 0.011,0.36 ± 0.049,0.355 ± 0.031,0.4333 ± 0.0037,0.37 ± 0.026
FFLLSVVLKYSV,0.0374 ± 0.0046,0.08659 ± 0.00036,0.103 ± 0.029,0.174 ± 0.0019,0.093 ± 0.021,0.0922 ± 0.021,0.14 ± 0.0075,0.19 ± 0.015
FFRFNCVFWLFL,0.509 ± 0.0099,0.551 ± 0.033,0.443 ± 0.021,0.604 ± 0.034,0.211 ± 0.0028,0.233 ± 0.016,0.428 ± 0.053,0.3129 ± 0.0019
FFRLFAPLLVVL,0.113 ± 0.02,0.0677 ± 0.015,0.188 ± 0.028,0.23 ± 0.033,0.2621 ± 0.0019,0.178 ± 0.019,0.1836 ± 0.0014,0.212 ± 0.01
FFSQLFLEIVAA,0.0642 ± 0.024,0.0709 ± 0.031,0.179 ± 0.03,0.196 ± 0.011,0.14 ± 0.018,0.175 ± 0.029,0.171 ± 0.027,0.257 ± 0.031
FFVFSFVLFFPL,0.347 ± 0.0076,0.427 ± 0.054,0.305 ± 0.046,0.456 ± 0.025,0.307 ± 0.006,0.322 ± 0.029,0.444 ± 0.022,0.369 ± 0.049
FFVLGPVVMSIH,0.278 ± 0.046,0.383 ± 0.032,0.285 ± 0.031,0.423 ± 0.02,0.2657 ± 0.0021,0.266 ± 0.038,0.4054 ± 0.0027,0.3849 ± 0.0033
FFVYFFLLLFWF,0.171 ± 0.015,0.0838 ± 0.023,0.213 ± 0.029,0.233 ± 0.027,0.272 ± 0.028,0.188 ± 0.015,0.196 ± 0.0034,0.208 ± 0.0049
FGARCSLSPLVT,0.7249 ± 0.0062,0.753 ± 0.017,0.618 ± 0.014,0.7463 ± 0.0025,0.639 ± 0.035,0.652 ± 0.019,0.6977 ± 0.0039,0.547 ± 0.1
FGCLFILRCSFL,0.429 ± 0.047,0.487 ± 0.00067,0.349 ± 0.035,0.5384 ± 0.00075,0.29 ± 0.0031,0.304 ± 0.026,0.4966 ± 0.0043,0.422 ± 0.0099
FGKGRSLLLVFS,0.548 ± 0.02,0.597 ± 0.022,0.378 ± 0.044,0.582 ± 0.0092,0.347 ± 0.015,0.395 ± 0.013,0.5765 ± 0.0039,0.475 ± 0.016
FGRAVWSRFCIV,0.604 ± 0.044,0.735 ± 0.029,0.601 ± 0.0099,0.736 ± 0.0076,0.13 ± 0.015,0.128 ± 0.03,0.177 ± 0.032,0.172 ± 0.064
FGVLLLFLFFLP,0.347 ± 0.0038,0.444 ± 0.02,0.337 ± 0.022,0.4673 ± 0.0036,0.322 ± 0.0086,0.323 ± 0.0085,0.427 ± 0.0068,0.413 ± 0.041

# Reference: the supplement of paper PMC10724198
